According to article PMC3075957 (Nature structural & molecular biology, 2011):

Key:
[1] = molecular target: K2Q23K2; test: sedimentation assay with HPLC
[2] = molecular target: K2Q23K2; test: seeded elongation kinetics
[3] = molecular target: K2Q23K2; test: sedimentation assay with HPLC of the supernatant
[4] = molecular target: K2Q23K2
[5] = molecular target: the molecule itself; test: sedimentation assay with HPLC of the supernatant
[6] = Electron microscopy of end-stage aggregates; type: physicochemical; conditions: PBS 37 °C, uniform smooth-sided fibrils
[7] = Aggregation time course by HPLC sedimentation assay; type: physicochemical; conditions: comparable concentrations, PBS 37 °C
[8] = Dynamic light scattering of aggregation reactions; type: physicochemical; conditions: 166 μM, PBS 37 °C, different incubation times

K2Q23K2 (peptide)
critical concentration (Cr) of monomer in equilibrium with fibrils [1]: 3 µM
kon [2]: 12400 M⁻¹ s⁻¹
n* (critical nucleus size of aggregation) [3]: 3.9
nucleation equilibrium constant Kn* (monomers to tetrameric nucleus) [3]: 0.076 l^3/mol^3
percent aggregation (215 μM, 27 hrs) [3]: 5%
loss of monomer within two hours (215 μM) [4]: < 1%

KKQQQQQQQQQQQQQQQQQQQQQQQQKK [K2Q24K2]
n* (critical nucleus size of aggregation) [5]: 3.3

KKQQQQQQQQQQQQQQQQQQQQQQQQQQQQQQQQQQQQQKK [K2Q37K2]
n* (critical nucleus size of aggregation) [5]: 0.7

B1: SFQ37P10K2 (peptide)
peptide: SFQQQQQQQQQQQQQQQQQQQQQQQQQQQQQQQQQQQQQPPPPPPPPPPKK
n* (critical nucleus size of aggregation) [5]: 1

KKQQQQQQQQQQQQQQQQQQQQQQQQQKK [K2Q25K2]
n* (critical nucleus size of aggregation) [5]: 2

B2: AT7^NTQ30K2: peptide consisting of the AT7^NT sequence (29 amino acid N-terminus of ataxin-7) followed by a Q30K2 sequence (peptide)
peptide: MSERAADDVRGEPRRAAAAAGGAAAAAARQQQQQQQQQQQQQQQQQQQQQQQQQQQQQQKK
Fibril diameter by electron microscopy [6]: ~10 nm
Aggregation rate compared with K2Q30K2 [7]: aggregates somewhat slower than K2Q30K2
Aggregate formation by DLS versus sedimentation assay [8]: no aggregate formation that was not detected by the sedimentation assay
